Test results reported in publication PMC7519303.

Molecular target: SgmX-Strep (C-terminal Strep-tagged SgmX variant) (M. xanthus)
Assay: SDS/PAGE of the purified protein; purified SgmX-Strep; band of ~233 kDa, heat- and detergent-resistant dimer

stoichiometry N: 2
Substance: SgmX-Strep (C-terminal Strep-tagged SgmX variant) (natural protein)
